Data published in US20030192074A1.

Legend:
[1] = target: AvrMla1 avirulence gene product of Erysiphe graminis f. sp. hordei (Erysiphe (=Blumeria) graminis f sp hordei)
[2] = target: AvrMla6 avirulence gene product of Erysiphe graminis f. sp. hordei (Erysiphe (=Blumeria) graminis f sp hordei)
[3] = target: AvrMla6 avirulence gene product of Erysiphe graminis f. sp. hordei (Erysiphe (=Blumeria) graminis f sp hordei); remark: listed apart in the source

| Substance | percent of GFP-Mlo expressing cells with an attached spore that support a fungal colony (3-component single-cell assay, mlo-5 barley leaves, isolate K1) [1] | percent of GFP-Mlo expressing cells with an attached spore that support a fungal colony (3-component single-cell assay, mlo-5 barley leaves, isolate A6) [2] | percent of GUS stained wheat (CERCO) cells with an attached spore that contain haustorium, isolate A6 [3] |
| --- | --- | --- | --- |
| MLA1 polypeptide (product of R gene A, Mla1, of barley line CI-16137, AlgR Mla1) | 9.3% | 47.1% | 23.9% |
| MLA6 polypeptide (product of Mla6 of barley line C.I. 16151) | 46.5% | 9.4% | 9.2% |
